From the supplement of paper PMC6757056
± gives the standard deviation of the averaged measurements.

B1: library; a variant is named by its letters at N, in order (parent)
chain: GCUGUCACCGGUGCUUGGUACGUUAUAUUCAGCCGGUCUGAUGAGUCUNNNNNNAGACGAAACAGC

Tests used:
[1] = variants of: B1; test: FACS-Seq fitted mean relative fluorescence mCherry/BFP without ligand (log10 relative fluorescence); HEK293T overexpressing SLC46A1; higher = higher reporter protein expression; conditions: without (6R,S)-folinic acid; ligand present: no
Summary of the method: (§1)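 Enriched HEK293T cells carrying, by lentivirus, an mCherry reporter with the ribozyme switch and an EF1α-BFP marker spent 48 h with or without ligand and were sorted into 6 bins by mCherry/BFP. MiSeq sequencing of PCR-amplified bin genomic DNA gave bin counts. Fluorescence was calculated as the fitted normal mean of those counts. Counts were binned on log10(mCherry/BFP), and means were scaled to five spiked-in control ribozymes.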

[2] = variants of: B1; test: normalized RNA/DNA level without ligand (relative to sTRSVctl = 100) (log10 (% of sTRSVctl)); HEK293T overexpressing SLC46A1; higher = less ribozyme self-cleavage, higher mRNA level; conditions: without (6R,S)-folinic acid; ligand present: no
Summary of the method: (§2)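 HEK293T cells were transfected with library plasmids carrying ribozyme switches linked to an mCherry reporter, or an eGFP reporter in some ligand experiments, at 4 µg per well of a 6-well plate, with any ligand added 1 h beforehand. After 72 h, total RNA was extracted with EDTA, reverse-transcribed, amplified, barcoded and sequenced. RNA level was defined as RNA reads over DNA reads, normalized to a spiked-in non-cleaving sequence or to the top-ranked sequences. That value was multiplied by 100 and converted to log10, the top set was 25 sequences, and only sequences with ≥100 DNA reads were retained.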

[3] = variants of: B1; test: FACS-Seq fitted mean relative fluorescence mCherry/BFP with ligand (log10 relative fluorescence); HEK293T overexpressing SLC46A1; ligand concentration (+) FACS-Seq: 6 mM; higher = higher reporter protein expression; conditions: with (6R,S)-folinic acid; ligand present: yes
Summary of the method: as §1

[4] = variants of: B1; test: normalized RNA/DNA level with ligand (relative to sTRSVctl = 100) (log10 (% of sTRSVctl)); HEK293T overexpressing SLC46A1; ligand concentration (+) RNA-Seq: 6 mM; higher = less ribozyme self-cleavage, higher mRNA level; conditions: with (6R,S)-folinic acid; ligand present: yes
Summary of the method: as §2

| Variant | FACS-Seq fitted mean (log10) [1] | normalized RNA/DNA level without ligand (log10) [2] | FACS-Seq fitted mean (log10) [3] | normalized RNA/DNA level with ligand (log10) [4] |
| --- | --- | --- | --- | --- |
| GCUGUCACCGGUGCUUGGUACGUUAUAUUCAGCCGGUCUGAUGAGUCUUCAAACAGACGAAACAGC [UCAAAC] | 0.446 ± 0.11 | 2.01 ± 0.0051 | 0.621 ± 0.079 | 2.01 ± 0.056 |
| GCUGUCACCGGUGCUUGGUACGUUAUAUUCAGCCGGUCUGAUGAGUCUACAAAGAGACGAAACAGC [ACAAAG] | 0.424 ± 0.017 | 1.929 ± 0.019 | 0.459 ± 0.23 | 2.01 ± 0.042 |
| GCUGUCACCGGUGCUUGGUACGUUAUAUUCAGCCGGUCUGAUGAGUCUACAACAAGACGAAACAGC [ACAACA] | 0.197 ± 0.026 | 2.032 ± 0.003 | 0.27 ± 0.24 | 2.03 ± 0.04 |
| GCUGUCACCGGUGCUUGGUACGUUAUAUUCAGCCGGUCUGAUGAGUCUUCAACCAGACGAAACAGC [UCAACC] | 0.654 ± 0.28 | 2.04 ± 0.023 | 0.606 ± 0.39 | 1.978 ± 0.017 |
| GCUGUCACCGGUGCUUGGUACGUUAUAUUCAGCCGGUCUGAUGAGUCUGCAACUAGACGAAACAGC [GCAACU] | 0.431 ± 0.019 | 2.0623 ± 0.00038 | 0.667 ± 0.22 | 2.06 ± 0.029 |
| GCUGUCACCGGUGCUUGGUACGUUAUAUUCAGCCGGUCUGAUGAGUCUUCAACUAGACGAAACAGC [UCAACU] | 0.46 ± 0.092 | 2.03 ± 0.0056 | 0.559 ± 0.13 | 2.04 ± 0.027 |
| GCUGUCACCGGUGCUUGGUACGUUAUAUUCAGCCGGUCUGAUGAGUCUGCAAGAAGACGAAACAGC [GCAAGA] | 0.477 ± 0.0057 | 2.022 ± 0.0049 | 0.457 ± 0.12 | 2.04 ± 0.024 |
| GCUGUCACCGGUGCUUGGUACGUUAUAUUCAGCCGGUCUGAUGAGUCUUCAAGAAGACGAAACAGC [UCAAGA] | 0.185 ± 0.046 | 1.9951 ± 0.0012 | 0.305 ± 0.13 | 2.028 ± 0.014 |
| GCUGUCACCGGUGCUUGGUACGUUAUAUUCAGCCGGUCUGAUGAGUCUUCAAGCAGACGAAACAGC [UCAAGC] | 0.599 ± 0.019 | 2.071 ± 0.0039 | 0.553 ± 0.17 | 2.05 ± 0.04 |
| GCUGUCACCGGUGCUUGGUACGUUAUAUUCAGCCGGUCUGAUGAGUCUGCAAGGAGACGAAACAGC [GCAAGG] | 0.437 ± 0.041 | 1.957 ± 0.007 | 0.376 ± 0.13 | 2.04 ± 0.049 |
